Assays:
[1] = molecular target: GABABR1a on mouse hippocampal neurons (cultures and slices) (mouse) (UniProt Q9WV18); experiment: cell-based or functional assay
[2] = molecular target: GABAB Receptor from rat whole-brain synaptosome extracts (rat); experiment: affinity pull-down with sAPPα-Fc bait on rat synaptosome extracts, LCLC-MS/MS, three repeats
GABAB Receptor from rat whole-brain synaptosome extracts (rat), sequence (Q9Z0U4 20-960, chain 1 of 2): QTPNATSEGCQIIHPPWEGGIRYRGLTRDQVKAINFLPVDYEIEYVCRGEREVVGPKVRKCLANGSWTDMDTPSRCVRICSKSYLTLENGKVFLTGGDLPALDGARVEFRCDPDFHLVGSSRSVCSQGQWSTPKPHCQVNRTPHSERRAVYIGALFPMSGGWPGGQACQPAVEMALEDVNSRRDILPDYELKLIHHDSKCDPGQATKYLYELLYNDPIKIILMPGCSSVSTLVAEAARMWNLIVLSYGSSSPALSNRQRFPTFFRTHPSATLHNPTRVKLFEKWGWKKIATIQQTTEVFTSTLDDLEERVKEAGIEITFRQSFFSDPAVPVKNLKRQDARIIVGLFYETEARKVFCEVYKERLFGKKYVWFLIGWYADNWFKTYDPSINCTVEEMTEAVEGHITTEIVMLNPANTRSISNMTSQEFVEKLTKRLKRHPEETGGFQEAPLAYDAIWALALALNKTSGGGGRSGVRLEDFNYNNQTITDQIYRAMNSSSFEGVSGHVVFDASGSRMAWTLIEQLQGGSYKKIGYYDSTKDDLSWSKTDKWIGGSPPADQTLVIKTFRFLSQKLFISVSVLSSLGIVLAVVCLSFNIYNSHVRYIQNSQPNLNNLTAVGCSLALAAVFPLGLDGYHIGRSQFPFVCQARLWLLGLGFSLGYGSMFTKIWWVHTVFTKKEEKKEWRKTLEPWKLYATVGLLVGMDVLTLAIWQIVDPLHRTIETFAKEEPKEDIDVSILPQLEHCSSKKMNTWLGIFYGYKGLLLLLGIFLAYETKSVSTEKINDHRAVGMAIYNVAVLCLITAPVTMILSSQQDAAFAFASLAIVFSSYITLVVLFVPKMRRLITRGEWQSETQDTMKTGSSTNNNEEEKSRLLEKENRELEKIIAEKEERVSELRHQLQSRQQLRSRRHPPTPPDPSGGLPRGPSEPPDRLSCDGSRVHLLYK
GABAB Receptor from rat whole-brain synaptosome extracts (rat), sequence (O88871 41-940, chain 2 of 2, further chain): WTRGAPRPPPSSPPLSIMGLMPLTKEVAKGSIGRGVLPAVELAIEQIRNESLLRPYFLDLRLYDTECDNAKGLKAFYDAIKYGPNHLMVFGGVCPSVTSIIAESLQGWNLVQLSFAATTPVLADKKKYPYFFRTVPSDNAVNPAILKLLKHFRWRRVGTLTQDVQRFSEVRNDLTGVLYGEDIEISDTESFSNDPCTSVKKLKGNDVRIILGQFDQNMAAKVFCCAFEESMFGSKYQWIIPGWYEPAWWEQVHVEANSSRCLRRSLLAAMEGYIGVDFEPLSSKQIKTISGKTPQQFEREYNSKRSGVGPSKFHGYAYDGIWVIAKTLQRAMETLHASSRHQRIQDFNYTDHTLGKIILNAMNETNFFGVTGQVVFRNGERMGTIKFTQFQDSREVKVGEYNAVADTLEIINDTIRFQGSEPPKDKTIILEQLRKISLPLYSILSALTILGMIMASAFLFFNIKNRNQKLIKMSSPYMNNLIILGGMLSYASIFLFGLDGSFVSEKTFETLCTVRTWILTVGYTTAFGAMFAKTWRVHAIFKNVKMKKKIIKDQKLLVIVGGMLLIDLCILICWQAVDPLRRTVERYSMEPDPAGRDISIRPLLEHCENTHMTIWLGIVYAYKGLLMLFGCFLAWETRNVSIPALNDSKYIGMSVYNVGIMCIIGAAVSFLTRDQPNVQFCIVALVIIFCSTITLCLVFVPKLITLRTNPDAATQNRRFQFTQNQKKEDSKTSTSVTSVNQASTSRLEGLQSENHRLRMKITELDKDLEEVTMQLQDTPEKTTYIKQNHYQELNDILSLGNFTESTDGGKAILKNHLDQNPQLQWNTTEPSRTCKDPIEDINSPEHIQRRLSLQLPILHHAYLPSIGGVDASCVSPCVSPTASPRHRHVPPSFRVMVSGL

GABABR1a on mouse hippocampal neurons (cultures and slices) (mouse), sequence (Q9WV18 20-960): as the sequence (Q9Z0U4 20-960, chain 1 of 2) above, with A5V, E108D, V124I, V702I, T850A, L902I counted along it

reduction in mIPSC frequency, 250 nM [1] [%] | summed peptide count [2] | summed spectra count [2] | Substance
17 |  |  | sAPLP1 (without Fc) (from UniProt Q03157 38-583) (ligand)
 | 35 | 22 | sAPPα-Fc (soluble amyloid precursor protein α fused to human Fc) (from UniProt P12023 18-612) (Fc fusion)
